Measured values published in publication PMC9482650, “Quantitative fragmentomics allow affinity mapping of interactomes” (Nature Communications, 2022).

T1: APBA1_1, Q02410
T1 sequence (Q02410 651-752, limits assumed, looked up): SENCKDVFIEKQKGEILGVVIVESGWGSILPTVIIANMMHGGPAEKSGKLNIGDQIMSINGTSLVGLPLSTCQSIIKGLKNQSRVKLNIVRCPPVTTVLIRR

T2: APBA1_2, Q02410
T2 sequence (Q02410 742-832, limits assumed, looked up): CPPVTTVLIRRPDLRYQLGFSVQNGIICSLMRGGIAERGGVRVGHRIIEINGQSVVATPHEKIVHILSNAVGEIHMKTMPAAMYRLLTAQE

T3: APBA3_1, O96018
T3 sequence (O96018 389-490, limits assumed, looked up): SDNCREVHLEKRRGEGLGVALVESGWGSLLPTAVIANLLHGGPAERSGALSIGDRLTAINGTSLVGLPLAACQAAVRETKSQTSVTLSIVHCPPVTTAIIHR

T4: DLG3_1, Q92796
T4 sequence (Q92796 125-227, limits assumed, looked up): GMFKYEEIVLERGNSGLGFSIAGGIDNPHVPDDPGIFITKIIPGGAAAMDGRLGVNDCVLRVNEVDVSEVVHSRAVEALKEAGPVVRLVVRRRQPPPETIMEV

T5: DLG3_2, Q92796
T5 sequence (Q92796 221-321, limits assumed, looked up): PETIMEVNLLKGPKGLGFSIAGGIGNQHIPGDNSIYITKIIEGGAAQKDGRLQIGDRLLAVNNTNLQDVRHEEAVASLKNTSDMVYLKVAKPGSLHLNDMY

T6: GRIP1_2, Q9Y3R0
T6 sequence (Q9Y3R0 145-248, limits assumed, looked up): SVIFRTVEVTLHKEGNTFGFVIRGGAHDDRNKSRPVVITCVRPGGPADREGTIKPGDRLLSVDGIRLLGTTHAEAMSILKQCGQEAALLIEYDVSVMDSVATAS

T7: LNX2_2, Q8N448
T7 sequence (Q8N448 334-432, limits assumed, looked up): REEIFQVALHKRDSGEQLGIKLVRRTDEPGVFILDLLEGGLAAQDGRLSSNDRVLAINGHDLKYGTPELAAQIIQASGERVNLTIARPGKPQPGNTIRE

T8: MPDZ_5, O75970
T8 sequence (O75970 695-796, limits assumed, looked up): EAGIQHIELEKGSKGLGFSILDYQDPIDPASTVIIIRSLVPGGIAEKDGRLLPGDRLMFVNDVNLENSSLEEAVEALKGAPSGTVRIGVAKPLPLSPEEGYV

T9: MPP2, Q14168
T9 sequence (Q14168 180-250, limits assumed, looked up): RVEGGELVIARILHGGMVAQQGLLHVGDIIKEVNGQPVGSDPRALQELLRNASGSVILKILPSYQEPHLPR

T10: RADIL, Q96JH8
T10 sequence (Q96JH8 971-1071, limits assumed, looked up): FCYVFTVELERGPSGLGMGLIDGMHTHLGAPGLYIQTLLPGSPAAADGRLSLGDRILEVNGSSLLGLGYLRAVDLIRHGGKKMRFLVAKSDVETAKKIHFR

T11: SNTB1, Q13884
T11 sequence (Q13884 107-205, limits assumed, looked up): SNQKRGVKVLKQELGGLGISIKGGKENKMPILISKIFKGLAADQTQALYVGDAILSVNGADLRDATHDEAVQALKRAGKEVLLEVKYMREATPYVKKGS

T12: TX1BP3, O14907
T12 sequence (O14907 10-122, limits assumed, looked up): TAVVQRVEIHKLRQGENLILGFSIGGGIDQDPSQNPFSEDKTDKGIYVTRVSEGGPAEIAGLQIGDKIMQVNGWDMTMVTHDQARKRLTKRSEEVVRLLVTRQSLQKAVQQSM

B1: IGSF5, Q9NSI5 (peptide)
chain: PEKVSNTTVV
B2: DFNB31, Q9P202 (peptide)
chain: FLVTEFNVML

target: T1, APBA1_1, Q02410; experiment: holdup assay; set-up: key: below the threshold = too weak to quantify, mostly under pKd 3.1 to 4; details: plain residues with an end cap or a label only (N-terminal biotin on a linker: ado-ado)

pKd | Binder
below the threshold | B1
below the threshold | B2

target: T2, APBA1_2, Q02410; experiment: holdup assay; set-up: key: below the threshold = too weak to quantify, mostly under pKd 3.1 to 4; details: plain residues with an end cap or a label only (N-terminal biotin on a linker: ado-ado)

pKd | Binder
3.51 | B1
3.84 | B2

target: T3, APBA3_1, O96018; experiment: holdup assay; set-up: key: below the threshold = too weak to quantify, mostly under pKd 3.1 to 4; details: plain residues with an end cap or a label only (N-terminal biotin on a linker: ado-ado)

pKd | Binder
below the threshold | B1
below the threshold | B2

target: ARHGEF12, Q9NZN5-2; experiment: holdup assay; set-up: key: below the threshold = too weak to quantify, mostly under pKd 3.1 to 4; details: plain residues with an end cap or a label only (N-terminal biotin on a linker: ado-ado)
Sequence (Q9NZN5 other isoform, or with tags, fused parts or gaps): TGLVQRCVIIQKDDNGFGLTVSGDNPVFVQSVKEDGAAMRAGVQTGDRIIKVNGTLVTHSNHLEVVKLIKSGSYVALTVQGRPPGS

pKd | Binder
4.21 | B1
below the threshold | B2

target: CASK, O14936; experiment: holdup assay; set-up: key: below the threshold = too weak to quantify, mostly under pKd 3.1 to 4; details: plain residues with an end cap or a label only (N-terminal biotin on a linker: ado-ado)
Sequence (O14936 487-570): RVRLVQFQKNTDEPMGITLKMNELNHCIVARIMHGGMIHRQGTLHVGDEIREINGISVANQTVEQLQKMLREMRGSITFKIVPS

pKd | Binder
below the threshold | B1
below the threshold | B2

target: DLG1_2, Q12959; experiment: holdup assay; set-up: key: below the threshold = too weak to quantify, mostly under pKd 3.1 to 4; details: plain residues with an end cap or a label only (N-terminal biotin on a linker: ado-ado)
Sequence (Q12959 314-412): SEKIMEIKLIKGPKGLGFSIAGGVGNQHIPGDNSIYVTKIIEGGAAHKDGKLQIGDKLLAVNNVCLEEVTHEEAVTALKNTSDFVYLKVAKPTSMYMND

pKd | Binder
4.64 | B1
below the threshold | B2

target: DLG2_2, Q15700; experiment: holdup assay; set-up: key: below the threshold = too weak to quantify, mostly under pKd 3.1 to 4; details: plain residues with an end cap or a label only (N-terminal biotin on a linker: ado-ado)
Sequence (Q15700 189-283): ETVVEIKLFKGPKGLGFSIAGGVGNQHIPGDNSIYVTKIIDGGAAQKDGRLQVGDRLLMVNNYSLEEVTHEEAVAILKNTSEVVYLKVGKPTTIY

pKd | Binder
4.44 | B1
below the threshold | B2

target: T4, DLG3_1, Q92796; experiment: holdup assay; set-up: key: below the threshold = too weak to quantify, mostly under pKd 3.1 to 4; details: plain residues with an end cap or a label only (N-terminal biotin on a linker: ado-ado)

pKd | Binder
3.83 | B1
below the threshold | B2

target: T5, DLG3_2, Q92796; experiment: holdup assay; set-up: key: below the threshold = too weak to quantify, mostly under pKd 3.1 to 4; details: plain residues with an end cap or a label only (N-terminal biotin on a linker: ado-ado)

pKd | Binder
4.73 | B1
below the threshold | B2

target: DLG4_3, P78352; experiment: holdup assay; set-up: key: below the threshold = too weak to quantify, mostly under pKd 3.1 to 4; details: plain residues with an end cap or a label only (N-terminal biotin on a linker: ado-ado)
Sequence (P78352 306-403): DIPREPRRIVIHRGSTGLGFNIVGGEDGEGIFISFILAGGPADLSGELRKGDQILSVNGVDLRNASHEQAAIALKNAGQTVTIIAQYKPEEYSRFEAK

pKd | Binder
below the threshold | B1
below the threshold | B2

target: T6, GRIP1_2, Q9Y3R0; experiment: holdup assay; set-up: key: below the threshold = too weak to quantify, mostly under pKd 3.1 to 4; details: plain residues with an end cap or a label only (N-terminal biotin on a linker: ado-ado)

pKd | Binder
below the threshold | B1
below the threshold | B2

target: Inadl_10, Q8NI35; experiment: holdup assay; set-up: key: below the threshold = too weak to quantify, mostly under pKd 3.1 to 4; details: plain residues with an end cap or a label only (N-terminal biotin on a linker: ado-ado)
Sequence (Q8NI35 1673-1763): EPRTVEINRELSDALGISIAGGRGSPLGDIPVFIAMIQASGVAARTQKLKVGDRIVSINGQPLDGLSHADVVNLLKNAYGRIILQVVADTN

pKd | Binder
below the threshold | B1
below the threshold | B2

target: LAP2, Q96RT1; experiment: holdup assay; set-up: key: below the threshold = too weak to quantify, mostly under pKd 3.1 to 4; details: plain residues with an end cap or a label only (N-terminal biotin on a linker: ado-ado)
Sequence (Q96RT1 other isoform, or with tags, fused parts or gaps): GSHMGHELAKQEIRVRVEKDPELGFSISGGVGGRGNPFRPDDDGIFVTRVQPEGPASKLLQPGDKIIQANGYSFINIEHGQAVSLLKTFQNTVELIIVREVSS

pKd | Binder
below the threshold | B1
below the threshold | B2

target: LNX1_2, Q8TBB1; experiment: holdup assay; set-up: key: below the threshold = too weak to quantify, mostly under pKd 3.1 to 4; details: plain residues with an end cap or a label only (N-terminal biotin on a linker: ado-ado)
Sequence (Q8TBB1 371-470): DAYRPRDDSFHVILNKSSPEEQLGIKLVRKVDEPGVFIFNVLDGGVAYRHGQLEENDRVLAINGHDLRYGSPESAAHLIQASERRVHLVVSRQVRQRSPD

pKd | Binder
3.73 | B1
below the threshold | B2

target: T7, LNX2_2, Q8N448; experiment: holdup assay; set-up: key: below the threshold = too weak to quantify, mostly under pKd 3.1 to 4; details: plain residues with an end cap or a label only (N-terminal biotin on a linker: ado-ado)

pKd | Binder
5.14 | B1
below the threshold | B2

target: MAGI2_4, Q86UL8; experiment: holdup assay; set-up: key: below the threshold = too weak to quantify, mostly under pKd 3.1 to 4; details: plain residues with an end cap or a label only (N-terminal biotin on a linker: ado-ado)
Sequence (Q86UL8 772-865): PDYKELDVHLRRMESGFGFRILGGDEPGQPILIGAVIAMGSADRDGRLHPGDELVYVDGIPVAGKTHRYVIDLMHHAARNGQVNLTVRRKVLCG

pKd | Binder
3.7 | B1
below the threshold | B2

target: MAGI3_2, Q5TCQ9; experiment: holdup assay; set-up: key: below the threshold = too weak to quantify, mostly under pKd 3.1 to 4; details: plain residues with an end cap or a label only (N-terminal biotin on a linker: ado-ado)
Sequence (Q5TCQ9 398-503): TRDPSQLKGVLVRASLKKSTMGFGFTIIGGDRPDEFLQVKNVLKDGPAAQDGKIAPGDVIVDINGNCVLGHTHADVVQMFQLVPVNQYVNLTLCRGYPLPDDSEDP

pKd | Binder
4.44 | B1
3.66 | B2

target: T8, MPDZ_5, O75970; experiment: holdup assay; set-up: key: below the threshold = too weak to quantify, mostly under pKd 3.1 to 4; details: plain residues with an end cap or a label only (N-terminal biotin on a linker: ado-ado)

pKd | Binder
below the threshold | B1
below the threshold | B2

target: T9, MPP2, Q14168; experiment: holdup assay; set-up: key: below the threshold = too weak to quantify, mostly under pKd 3.1 to 4; details: plain residues with an end cap or a label only (N-terminal biotin on a linker: ado-ado)

pKd | Binder
below the threshold | B1
below the threshold | B2

target: PDZRN4_1, Q6ZMN7; experiment: holdup assay; set-up: key: below the threshold = too weak to quantify, mostly under pKd 3.1 to 4; details: plain residues with an end cap or a label only (N-terminal biotin on a linker: ado-ado)
Sequence (Q6ZMN7 213-318): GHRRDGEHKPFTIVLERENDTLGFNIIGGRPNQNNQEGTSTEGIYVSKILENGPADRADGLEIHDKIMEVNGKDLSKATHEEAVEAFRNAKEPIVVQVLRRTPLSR

pKd | Binder
below the threshold | B1
below the threshold | B2

target: PICK1, Q9NRD5; experiment: holdup assay; set-up: key: below the threshold = too weak to quantify, mostly under pKd 3.1 to 4; details: plain residues with an end cap or a label only (N-terminal biotin on a linker: ado-ado)
Sequence (Q9NRD5 17-115): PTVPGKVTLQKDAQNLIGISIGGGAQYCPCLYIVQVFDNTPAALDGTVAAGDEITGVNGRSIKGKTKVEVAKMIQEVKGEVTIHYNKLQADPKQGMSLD

pKd | Binder
4.15 | B1
below the threshold | B2

target: T10, RADIL, Q96JH8; experiment: holdup assay; set-up: key: below the threshold = too weak to quantify, mostly under pKd 3.1 to 4; details: plain residues with an end cap or a label only (N-terminal biotin on a linker: ado-ado)

pKd | Binder
4.3 | B1
4.78 | B2

target: T11, SNTB1, Q13884; experiment: holdup assay; set-up: key: below the threshold = too weak to quantify, mostly under pKd 3.1 to 4; details: plain residues with an end cap or a label only (N-terminal biotin on a linker: ado-ado)

pKd | Binder
3.93 | B1
below the threshold | B2

target: TJP1_2, Q07157; experiment: holdup assay; set-up: key: below the threshold = too weak to quantify, mostly under pKd 3.1 to 4; details: plain residues with an end cap or a label only (N-terminal biotin on a linker: ado-ado)
Sequence (Q07157 181-274): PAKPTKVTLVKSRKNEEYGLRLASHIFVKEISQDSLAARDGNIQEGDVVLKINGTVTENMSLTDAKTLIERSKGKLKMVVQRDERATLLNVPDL

pKd | Binder
below the threshold | B1
below the threshold | B2

target: TJP2_1, Q9UDY2; experiment: holdup assay; set-up: key: below the threshold = too weak to quantify, mostly under pKd 3.1 to 4; details: plain residues with an end cap or a label only (N-terminal biotin on a linker: ado-ado)
Sequence (Q9UDY2 24-128): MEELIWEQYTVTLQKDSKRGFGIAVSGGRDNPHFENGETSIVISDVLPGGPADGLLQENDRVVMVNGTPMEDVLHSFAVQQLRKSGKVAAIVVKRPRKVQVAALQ

pKd | Binder
below the threshold | B1
below the threshold | B2

target: T12, TX1BP3, O14907; experiment: holdup assay; set-up: key: below the threshold = too weak to quantify, mostly under pKd 3.1 to 4; details: plain residues with an end cap or a label only (N-terminal biotin on a linker: ado-ado)

pKd | Binder
below the threshold | B1
3.96 | B2
